# Data reported in publication PMC5976439.
# Assays:
# [1] = biological target: wild type mononucleosome (recombinant Xenopus laevis histone octamer on 601 DNA) (Xenopus laevis)
# [2] = biological target: wild type mononucleosome (recombinant Xenopus laevis histone octamer on 601 DNA) (Xenopus laevis); remark: listed apart in the source
# [3] = biological target: APM (acidic patch mutant) mononucleosome, H2A E61A, E64A, D90A, D92A (Xenopus laevis)
Substance,"reduction of the rate constant of remodeling of WT nucleosomes by sub-saturating SNF2h, dose-dependent, up to 50 µM LANA peptide; the pair that is blocked: SNF2h and the nucleosome [1] [fold]","apparent Km (KM^app) of the gel remodeling rate against SNF2h concentration, 0/60 WT nucleosomes, cooperative binding model [2] [µM]","apparent Km (KM^app) of the gel remodeling rate against SNF2h concentration, 0/60 APM nucleosomes, cooperative binding model [3] [µM]"
LANA peptide (from the latency associated nuclear antigen of Kaposi's sarcoma-associated herpesvirus),200,,
"SNF2h (human ISWI ATPase), purified from E. coli (from UniProt O60264 1-1052) (enzyme)",,0.061,0.28
